According to PMC4691841:

What was measured:
Test in all cases: ITC
histone H3(1-10) peptide = histone H3(1-10) peptide (UniProt P68431)
H3(1-10)R2me2a peptide = H3(1-10)R2me2a peptide (UniProt P68431)
H3(1-15)T3ph peptide = H3(1-15)T3ph peptide (UniProt P68431)
H3(1-15)K4me3 peptide = H3(1-15)K4me3 peptide (UniProt P68431)

Sequence of UHRF1 PHD finger (PHD_(UHRF1)) (Q96T88 298-367): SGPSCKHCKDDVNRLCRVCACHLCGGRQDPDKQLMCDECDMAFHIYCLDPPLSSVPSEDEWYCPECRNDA

Kd (histone H3(1-10) peptide) [µM]	Kd (H3(1-10)R2me2a peptide) [µM]	Kd (H3(1-15)T3ph peptide) [µM]	Kd (H3(1-15)K4me3 peptide) [µM]	Substance
47	–	–	–	PHD_(UHRF1) D350A mutant (from UniProt Q96T88-2 311-380) (domain or fragment)
95	–	–	–	PHD_(UHRF1) D347A mutant (from UniProt Q96T88-2 311-380) (domain or fragment)
–	44.9	> 500	7.3	UHRF1 PHD finger (PHD_(UHRF1)) (from UniProt Q96T88-2 311-380) (domain or fragment)
